Laboratory results published in patent publication US20210032331A1 (PHANES THERAPEUTICS, published 2021).
Substitutions are numbered along the chain they refer to.

T1: human LAG-3(ECD)-huFc (human, UniProt P18627 23-450)
T1 construct: also called Fc-tagged human LAG-3(ECD)-huFc; not shown: human Fc (huFc) at the C-terminus
T1 sequence: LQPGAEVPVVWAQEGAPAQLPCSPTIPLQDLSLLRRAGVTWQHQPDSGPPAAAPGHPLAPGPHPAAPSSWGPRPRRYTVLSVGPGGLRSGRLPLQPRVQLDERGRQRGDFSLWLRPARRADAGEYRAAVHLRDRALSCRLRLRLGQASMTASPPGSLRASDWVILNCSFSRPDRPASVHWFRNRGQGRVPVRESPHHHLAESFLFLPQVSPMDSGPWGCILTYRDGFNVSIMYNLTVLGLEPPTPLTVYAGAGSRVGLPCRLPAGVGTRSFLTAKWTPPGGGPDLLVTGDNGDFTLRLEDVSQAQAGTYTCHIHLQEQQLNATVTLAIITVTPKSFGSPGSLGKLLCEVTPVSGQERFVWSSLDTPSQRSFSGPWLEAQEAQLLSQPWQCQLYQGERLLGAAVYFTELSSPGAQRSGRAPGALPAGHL

B1: B11 (antibody, V domains shown)
VH: EVQLQQSGPVLVRPGASVKMSCKASGYTFTNYYMNWVKQSHGKSLEWIGVINPYNGDIAYSQKFKGKATLTVDKSSSTAYMELKSLTSEDSAVYYCARDDGYYVYYFDCWGQGTTLTVSS
VL: DIQMTQSPSSLSASLGERVSLTCRASQDIGGSLNWLQQKPDGTIKRLIYSTSTLDSGVPKRFSGSRSGSDYSLTISSLESEDFADYYCLQNANSPPTFGGGTKLEIK
notes: Mouse mAb from hybridoma; also called mouse anti-LAG-3 mAb B11
B2: B2 (antibody, V domains shown)
VH: QVHLQQSGPQLVKPGASVKISCKASGYTFTDYYINWVKQRPGQGLEWIGWIFPGSGSTYYNEKFKGKATLTVDKSSSTAYMLLSSLTSEDSAVYFCVRIHFDYDWFFDVWGTGTTVTVSS
VL: DVVMTQTPLSLPVSLGDQASISCRSSQSIVHSNGNTYFYWYLQKPGQSPNLLIYRVSNRFSGVPDRFSGSGSGTDFTLKISRVEAEDMGVYYCFQGTHVPYTFGGGTKLEIK
notes: Mouse mAb from hybridoma; also called mouse anti-LAG-3 mAb B2
B3: B7 (antibody, V domains shown)
VH: EFQLQQSGPELVKPGASVKISCKASGYSFSDYNLNWVKQSNGKTLEWIGLINLDSAATVYNQKFKGKATLTIDQSSTTAYMQLNSLTSDDSAVYYCASYDYWGQGTTLTVSS
VL: DIQMTQSPSSLSASLGERVSLSCRASQDISHYLNWFQQKPDGTFKRLIYETSTLDFGVPKRFSGSRSGSDYSLTIGSLESEDFADYYCLQYATYPLTFGAGTKLELK
notes: Mouse mAb from hybridoma; also called mouse anti-LAG-3 mAb B7
B4: B10 (antibody, V domains shown)
VH: EFQLQQSGPELVKPGASVKISCKASGYSFTDYNLNWVKESNGKSLEWIGLITLDYGTTIYNQKFKGKATLTVDQSSSIAYMQLNSLTSDDSAVYYCACYDYWGQGTTLTVSS
VL: B3 VL with S22T, H31N, E50A, G76S, T93S
notes: Mouse mAb from hybridoma; also called mouse anti-LAG-3 mAb B10

Each binder was assayed against T1, human LAG-3(ECD)-huFc (assay: SPR (Biacore): mAb from hybridoma supernatant captured on anti-mouse IgG CM5 chip, human LAG-3(ECD)-huFc 50-400 nM injected).
Procedure: Anti-mouse IgG antibodies were immobilized via amine coupling on CM5 chip surface. Anti-LAG-3 mAbs in hybridoma supernatants were captured on the chip surface and a series of concentrations (50-400 nM) of human LAG-3(ECD)-huFc protein were injected and passed through the captured surface. The on and off rates for antibody-antigen binding were measured, curve fitted and calculated.

Kd [nM] | Binder
1.18 | B1
4.09 | B2
0.758 | B3
1.1 | B4

These binders were tested against T2, BG29 (human IgG4 heavy chain and kappa light chain chimeric) (assay: ELISA peptide competition: peptide preincubated with chimeric IgG4 BG29, competitor hLAG3-mFc; peptide at 200-fold hLAG3-mFc; capture on anti-human IgG, anti-mouse IgG-HRP).
T2 construct: Chimeric: mouse VH and VL with human IgG4 heavy chain and kappa light chain constant regions; also called chimeric BG29
Procedure: (§1) FIGS. 5A-5D show the effect of competition peptides on LAG-3 binding to anti-LAG-3 mAbs. […] B5/IgG4 was preincubated with a competition peptide for 30 minutes. Then human LAG-3 extracellular domain (ECD) fused to mouse Fc (hLAG3-mFc) was added (the final peptide concentration was 600-fold that of hLAG3-mFc) and the mixture was incubated for 60 minutes before being added to an ELISA plate coated with anti-human IgG. The incubation was carried out at 4° C. overnight. After washing, the hLAG3-mFc bound to the immobilized B5/IgG4 on the ELISA plate was detected by adding anti-mouse IgG conjugated to horseradish peroxidase (HRP) and incubating for 60 minutes. Then, after washing, the ELISA was developed using One-step Detection Solution and measured as the absorbance at 450 nm.
(§2) Anti-human IgG in carbonate coating buffer was coated on an ELISA plate at 4° C. (50 μL/well at 1 μg/mL) overnight. In each well of a separate plate, a chimeric version of a given anti-LAG-3 mAb (50 μL/well at 1.4 nM) and a competition peptide (50 μL/well at various concentrations as indicated in the figures) were mixed and incubated for 30 minutes at room temperature. Then human LAG-3 extracellular domain (ECD) fused to mouse Fc (hLAG3-mFc) was added to each well (50 μL/well at 2 nM) and the final mixture was incubated at room temperature for 60 minutes before added to the ELISA plate (50 μL/well) for another 60-minute incubation. The final incubation after adding the mixture to the ELISA plate was also performed at 4° C. overnight in some assays. The plate was washed and the binding of hLAG3-mFc to the immobilized anti-LAG-3 mAb was detected by adding anti-mouse IgG conjugated to horseradish peroxidase (hIgG-HRP) (ThermoFisher Scientific, Cat#: A16084; Waltham, Mass.) and incubating for 60 minutes.

binding result | Binder
binds | PPAAAPGHPLAPG (also called peptide 2-14) [2-14]
binds | GPPAAAPGHPLAP (also called peptide 1-13) [1-13]
binds | GPPAAAPGHPLAPG (also called peptide 1-14) [1-14]
binds | GPPAAAPGHPLAPGPHPAAPSSWGPRPRRY (also called peptide 1-30) [1-30]

Each binder was assayed against T3, B3C (assay: ELISA peptide competition: peptide (1X, 10X, 50X) preincubated with chimeric IgG1 B3, competitor hLAG3-mFc; capture on anti-human IgG, anti-mouse IgG-HRP).
T3 construct: Chimeric: mouse VH and VL fused to constant regions of human IgG1 heavy chain and kappa light chain; also called the chimeric version of mouse mAb B3; B3 (human IgG1 heavy chain and kappa light chain chimeric)
Procedure: (§3) Then human LAG-3 extracellular domain (ECD) fused to mouse Fc (hLAG3-mFc) was added (the final peptide concentration was 600-fold that of hLAG3-mFc) and the mixture was incubated for 60 minutes before being added to an ELISA plate coated with anti-human IgG. The incubation was carried out at 4° C. overnight. After washing, the hLAG3-mFc bound to the immobilized B5/IgG4 on the ELISA plate was detected by adding anti-mouse IgG conjugated to horseradish peroxidase (HRP) and incubating for 60 minutes. Then, after washing, the ELISA was developed using One-step Detection Solution and measured as the absorbance at 450 nm.
(§4) FIGS. 9A-9B show the effect of competition peptides on LAG-3 binding to anti-LAG-3 mAbs.
as §2, with “assays.” for “assays. The plate was washed and the binding of hLAG3-mFc to the immobilized anti-LAG-3 mAb was detected by adding anti-mouse IgG conjugated to horseradish peroxidase (hIgG-HRP) (ThermoFisher Scientific, Cat#: A16084; Waltham, Mass.) and incubating for 60 minutes.”

binding result | Binder
binds | LAPGPHPAAPSSWG (also called peptide 11-24) [11-24]
binds | GPHPAAPSSWG (also called peptide 14-24) [14-24]
binds | PGPHPAAPSSWG (also called peptide 13-24) [13-24]
no binding (tested: 50X peptide) | PGHPLAPGPHPAAPSS (also called peptide 7-22) [7-22]
binds | PHPAAPSSWGPRPRRY (also called peptide 15-30) [15-30]
binds | APGPHPAAPSSWG (also called peptide 12-24) [12-24]
binds | PGHPLAPGPHPAAPSSW (also called peptide 7-23) [7-23]
binds | HPAAPSSWGPRPRRY (also called peptide 16-30) [16-30]

The binders below were run against T4, B5/IgG4 (assay: ELISA peptide competition: peptide preincubated with B5/IgG4, competitor hLAG3-mFc; peptide at 600-fold hLAG3-mFc; capture on anti-human IgG, anti-mouse IgG-HRP).
T4 construct: Chimeric: mouse VH and VL with human IgG4 heavy chain and kappa light chain constant regions; also called B5 (human IgG4 heavy chain and kappa light chain chimeric)
T4 sequence (VH, as listed by the source, chain 1 of 2): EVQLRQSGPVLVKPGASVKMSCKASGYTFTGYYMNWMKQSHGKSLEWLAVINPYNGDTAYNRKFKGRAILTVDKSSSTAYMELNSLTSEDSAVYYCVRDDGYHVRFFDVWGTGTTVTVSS
T4 sequence (VL, as listed by the source, chain 2 of 2): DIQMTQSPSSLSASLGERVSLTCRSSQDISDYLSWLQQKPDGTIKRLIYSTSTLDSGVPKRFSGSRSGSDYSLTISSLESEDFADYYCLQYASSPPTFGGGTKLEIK
Procedure: as §1, §2

binding result | Binder
binds | PPAAAPGHPLAPG (also called peptide 2-14) [2-14]
binds | GPPAAAPGHPLAP (also called peptide 1-13) [1-13]
binds | GPPAAAPGHPLAPG (also called peptide 1-14) [1-14]

The binders below were run against T5, B4C (assay: ELISA peptide competition: peptide (1X, 10X, 50X) preincubated with chimeric IgG1 B4, competitor hLAG3-mFc; capture on anti-human IgG, anti-mouse IgG-HRP).
T5 construct: Chimeric: mouse VH and VL fused to constant regions of human IgG1 heavy chain and kappa light chain; also called the chimeric version of mouse mAb B4; B4 (human IgG1 heavy chain and kappa light chain chimeric)
Procedure: as §3, §4
as §2, with “assays.” for “assays. The plate was washed and the binding of hLAG3-mFc to the immobilized anti-LAG-3 mAb was detected by adding anti-mouse IgG conjugated to horseradish peroxidase (hIgG-HRP) (ThermoFisher Scientific, Cat#: A16084; Waltham, Mass.) and incubating for 60 minutes.”

binding result | Binder
binds | LAPGPHPAAPSSWG (also called peptide 11-24) [11-24]
binds | GPHPAAPSSWG (also called peptide 14-24) [14-24]
binds | PGPHPAAPSSWG (also called peptide 13-24) [13-24]
no binding (tested: 50X peptide) | PGHPLAPGPHPAAPSS (also called peptide 7-22) [7-22]
binds | PHPAAPSSWGPRPRRY (also called peptide 15-30) [15-30]
binds | APGPHPAAPSSWG (also called peptide 12-24) [12-24]
binds | PGHPLAPGPHPAAPSSW (also called peptide 7-23) [7-23]
binds | HPAAPSSWGPRPRRY (also called peptide 16-30) [16-30]

These binders were tested against T6, B12 (human IgG1 heavy chain and kappa light chain chimeric) (assay: ELISA peptide competition: peptide preincubated with chimeric IgG1 B12, competitor hLAG3-mFc; peptide at 600-fold hLAG3-mFc; capture on anti-human IgG, anti-mouse IgG-HRP).
T6 construct: Chimeric: mouse VH and VL with human IgG1 heavy chain and kappa light chain constant regions
Procedure: as §1, §2

binding result | Binder
binds | PPAAAPGHPLAPG (also called peptide 2-14) [2-14]
binds | GPPAAAPGHPLAPG (also called peptide 1-14) [1-14]

Each binder was assayed against T7, B7/IgG4 (assay: ELISA peptide competition: peptide preincubated with B7/IgG4, competitor hLAG3-mFc; peptide at 600-fold hLAG3-mFc; final incubation 60 min at room temperature; anti-mouse IgG-HRP).
T7 construct: Chimeric: mouse VH and VL with human IgG4 heavy chain and kappa light chain constant regions; also called B7 (human IgG4 heavy chain and kappa light chain chimeric)
Procedure: as §3, with “B5/IgG4 was preincubated with a competition peptide for 30 minutes. Then human” for “Then human”
The assay condition is the same as in FIG. 5A except that the final incubation of the mAb, the competition peptide, and hLAG3-mFc on the ELISA plate was performed at room temperature for 60 minutes instead of incubation at 4° C. overnight.
Anti-human IgG in carbonate coating buffer was coated on an ELISA plate at 4° C. (50 μL/well at 1 μg/mL) overnight. In each well of a separate plate, a chimeric version of a given anti-LAG-3 mAb (50 μL/well at 1.4 nM) and a competition peptide (50 μL/well at various concentrations as indicated in the figures) were mixed and incubated for 30 minutes at room temperature. Then human LAG-3 extracellular domain (ECD) fused to mouse Fc (hLAG3-mFc) was added to each well (50 μL/well at 2 nM) and the final mixture was incubated at room temperature for 60 minutes before added to the ELISA plate (50 μL/well) for another 60-minute incubation.

binding result | Binder
binds | PHPAAPSSWGPRPRRY (also called peptide 15-30) [15-30]
binds | GPPAAAPGHPLAPGPHPAAPSSWGPRPRRY (also called peptide 1-30) [1-30]
binds | HPAAPSSWGPRPRRY (also called peptide 16-30) [16-30]
